Laboratory results: US20120288494A1 (published 2012)
Numbering of substitutions follows the chain as printed. Where two headings read alike, the source gives them in different places.

T1: human IL-12 p70 (UniProt P29460 23-328; P29459 23-219)
T1 chain 1: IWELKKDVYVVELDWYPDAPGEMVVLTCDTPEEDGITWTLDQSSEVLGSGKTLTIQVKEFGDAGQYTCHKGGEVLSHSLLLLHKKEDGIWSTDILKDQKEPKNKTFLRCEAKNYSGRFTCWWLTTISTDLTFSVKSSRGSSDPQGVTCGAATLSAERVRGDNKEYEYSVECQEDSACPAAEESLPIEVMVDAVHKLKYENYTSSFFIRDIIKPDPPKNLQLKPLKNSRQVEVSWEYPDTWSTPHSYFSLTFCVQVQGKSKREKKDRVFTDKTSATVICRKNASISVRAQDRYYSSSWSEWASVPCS
T1 chain 2: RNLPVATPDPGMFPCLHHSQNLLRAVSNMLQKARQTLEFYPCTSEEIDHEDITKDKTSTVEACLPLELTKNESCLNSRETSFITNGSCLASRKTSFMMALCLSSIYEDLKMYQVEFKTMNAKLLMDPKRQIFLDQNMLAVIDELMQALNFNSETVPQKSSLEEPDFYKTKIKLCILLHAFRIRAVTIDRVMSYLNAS

B1: Y61 (antibody, V domains shown)
VH: QVQLVQSGGGVVQPGRSLRLSCAASGFTFSSYGMHWVRQAPGKGLEWVAFIRYDGSNKYYADSVKGRFTISRDNSKNTLYLQMKSLRAEDTAVYYCKTHGSHDNWGQGTMVTVSS
VL: SYVLTQPPSVSGTPGQRVTISCSGGRSNIGSNTVKWYQQLPGTAPKLLIYGNDQRPSGVPDRFSGSKSGTSASLAITGVQAEDEADYYCQSYDRGTHPALLFGTGTKVTVLG
B2: J695 (antibody, V domains shown)
VH: B1 VH with Q6E, K84N
VL: B1 VL with S1Q, Y2S, T13A, G25S, G51Y, V79L, G95Y
B3: 103-14 (antibody, V domains shown)
VH: B1 VH
VL: SYVLTQPPSVSGTPGQRVTISCSGGRSNIGSNTVKWYQQLPGTAPKLLIYGNDQRPSGVPDRFSGSKSGTSASLAITGVQAEDEADYYCQSYDRGFTGSMVFGTGTKVTVL
B4: IL-12 (ligand)
chain 1: T1 chain 1
chain 2: T1 chain 2

Assays:
[1] = molecular target: B4; experiment: kinetic binding
[2] = molecular target: B4; experiment: receptor binding assay (RBA)
[3] = molecular target: T1, human IL-12 p70; experiment: receptor binding assay (RBA)
[4] = molecular target: T1, human IL-12 p70; experiment: kinetic binding
[5] = molecular target: T1, human IL-12 p70; experiment: receptor binding assay (RBA)
[6] = molecular target: Y61 L50Y; experiment: kinetic binding
[7] = molecular target: Y61 L94Y; experiment: kinetic binding
[8] = molecular target: 78-34; experiment: kinetic binding

Binder: B1
Kd [1]: 0.604 nM | IC50 [2]: 0.016 nM

Binder: B2
IC50 [3]: 0.05 nM

Binder: B3
koff [4]: 0.00067 s⁻¹ | IC50 [5]: 0.04 nM

Binder: B4
Kd [6]: 0.138 nM | Kd [7]: 0.341 nM | koff [8]: 0.0164 s⁻¹
